# ± gives the uncertainty stated by the source.
# Assay: abundance fitness (aPCA) (normalised: wild type 0, dead -1); higher = more abundant; growth selection in yeast, the domain comes from the species named
# Conditions: Homo sapiens
row,Substance,abundance fitness
1,"Lipoamide acyltransferase component of branched-chain alpha-keto acid dehydrogenase complex, mitochondrial A173C, P11182",-0.163 ± 0.092
2,"Lipoamide acyltransferase component of branched-chain alpha-keto acid dehydrogenase complex, mitochondrial A173D, P11182",-0.296 ± 0.067
3,"Lipoamide acyltransferase component of branched-chain alpha-keto acid dehydrogenase complex, mitochondrial A173E, P11182",-0.219 ± 0.07
4,"Lipoamide acyltransferase component of branched-chain alpha-keto acid dehydrogenase complex, mitochondrial A173F, P11182",-0.439 ± 0.096
5,"Lipoamide acyltransferase component of branched-chain alpha-keto acid dehydrogenase complex, mitochondrial A173G, P11182",-0.287 ± 0.036
6,"Lipoamide acyltransferase component of branched-chain alpha-keto acid dehydrogenase complex, mitochondrial A173K, P11182",-0.391 ± 0.068
7,"Lipoamide acyltransferase component of branched-chain alpha-keto acid dehydrogenase complex, mitochondrial A173L, P11182",-0.411 ± 0.058
8,"Lipoamide acyltransferase component of branched-chain alpha-keto acid dehydrogenase complex, mitochondrial A173M, P11182",-0.135 ± 0.057
9,"Lipoamide acyltransferase component of branched-chain alpha-keto acid dehydrogenase complex, mitochondrial A173N, P11182",-0.424 ± 0.14
10,"Lipoamide acyltransferase component of branched-chain alpha-keto acid dehydrogenase complex, mitochondrial A173P, P11182",-0.406 ± 0.087
11,"Lipoamide acyltransferase component of branched-chain alpha-keto acid dehydrogenase complex, mitochondrial A173Q, P11182",-0.441 ± 0.048
12,"Lipoamide acyltransferase component of branched-chain alpha-keto acid dehydrogenase complex, mitochondrial A173R, P11182",-0.608 ± 0.04
13,"Lipoamide acyltransferase component of branched-chain alpha-keto acid dehydrogenase complex, mitochondrial A173S, P11182",-0.186 ± 0.046
14,"Lipoamide acyltransferase component of branched-chain alpha-keto acid dehydrogenase complex, mitochondrial A173T, P11182",-0.05 ± 0.042
15,"Lipoamide acyltransferase component of branched-chain alpha-keto acid dehydrogenase complex, mitochondrial A173V, P11182",-0.059 ± 0.054
16,"Lipoamide acyltransferase component of branched-chain alpha-keto acid dehydrogenase complex, mitochondrial A173W, P11182",-0.279 ± 0.071
17,"Lipoamide acyltransferase component of branched-chain alpha-keto acid dehydrogenase complex, mitochondrial A173Y, P11182",-0.153 ± 0.19
18,"Lipoamide acyltransferase component of branched-chain alpha-keto acid dehydrogenase complex, mitochondrial A176C, P11182",-0.173 ± 0.051
19,"Lipoamide acyltransferase component of branched-chain alpha-keto acid dehydrogenase complex, mitochondrial A176D, P11182",-0.047 ± 0.043
20,"Lipoamide acyltransferase component of branched-chain alpha-keto acid dehydrogenase complex, mitochondrial A176E, P11182",-0.043 ± 0.06
21,"Lipoamide acyltransferase component of branched-chain alpha-keto acid dehydrogenase complex, mitochondrial A176G, P11182",-0.074 ± 0.038
22,"Lipoamide acyltransferase component of branched-chain alpha-keto acid dehydrogenase complex, mitochondrial A176H, P11182",-0.128 ± 0.06
23,"Lipoamide acyltransferase component of branched-chain alpha-keto acid dehydrogenase complex, mitochondrial A176I, P11182",-0.115 ± 0.089
24,"Lipoamide acyltransferase component of branched-chain alpha-keto acid dehydrogenase complex, mitochondrial A176K, P11182",-0.312 ± 0.065

row,Substance,abundance fitness
1,"Lipoamide acyltransferase component of branched-chain alpha-keto acid dehydrogenase complex, mitochondrial A176L, P11182",-0.21 ± 0.046
2,"Lipoamide acyltransferase component of branched-chain alpha-keto acid dehydrogenase complex, mitochondrial A176M, P11182",-0.127 ± 0.043
3,"Lipoamide acyltransferase component of branched-chain alpha-keto acid dehydrogenase complex, mitochondrial A176N, P11182",-0.113 ± 0.097
4,"Lipoamide acyltransferase component of branched-chain alpha-keto acid dehydrogenase complex, mitochondrial A176P, P11182",-0.203 ± 0.043
5,"Lipoamide acyltransferase component of branched-chain alpha-keto acid dehydrogenase complex, mitochondrial A176Q, P11182",0.017 ± 0.058
6,"Lipoamide acyltransferase component of branched-chain alpha-keto acid dehydrogenase complex, mitochondrial A176R, P11182",-0.143 ± 0.036
7,"Lipoamide acyltransferase component of branched-chain alpha-keto acid dehydrogenase complex, mitochondrial A176S, P11182",-0.036 ± 0.039
8,"Lipoamide acyltransferase component of branched-chain alpha-keto acid dehydrogenase complex, mitochondrial A176T, P11182",-0.067 ± 0.051
9,"Lipoamide acyltransferase component of branched-chain alpha-keto acid dehydrogenase complex, mitochondrial A176V, P11182",-0.168 ± 0.041
10,"Lipoamide acyltransferase component of branched-chain alpha-keto acid dehydrogenase complex, mitochondrial A176W, P11182",-0.473 ± 0.045
11,"Lipoamide acyltransferase component of branched-chain alpha-keto acid dehydrogenase complex, mitochondrial A176Y, P11182",-0.16 ± 0.06
12,"Lipoamide acyltransferase component of branched-chain alpha-keto acid dehydrogenase complex, mitochondrial D197A, P11182",-0.235 ± 0.036
13,"Lipoamide acyltransferase component of branched-chain alpha-keto acid dehydrogenase complex, mitochondrial D197C, P11182",-0.319 ± 0.095
14,"Lipoamide acyltransferase component of branched-chain alpha-keto acid dehydrogenase complex, mitochondrial D197E, P11182",-0.098 ± 0.05
15,"Lipoamide acyltransferase component of branched-chain alpha-keto acid dehydrogenase complex, mitochondrial D197F, P11182",-0.26 ± 0.17
16,"Lipoamide acyltransferase component of branched-chain alpha-keto acid dehydrogenase complex, mitochondrial D197H, P11182",0.025 ± 0.11
17,"Lipoamide acyltransferase component of branched-chain alpha-keto acid dehydrogenase complex, mitochondrial D197I, P11182",-1.31 ± 0.15
18,"Lipoamide acyltransferase component of branched-chain alpha-keto acid dehydrogenase complex, mitochondrial D197K, P11182",-0.23 ± 0.048
19,"Lipoamide acyltransferase component of branched-chain alpha-keto acid dehydrogenase complex, mitochondrial D197L, P11182",-0.337 ± 0.055
20,"Lipoamide acyltransferase component of branched-chain alpha-keto acid dehydrogenase complex, mitochondrial D197M, P11182",-0.382 ± 0.082
21,"Lipoamide acyltransferase component of branched-chain alpha-keto acid dehydrogenase complex, mitochondrial D197P, P11182",-0.76 ± 0.13
22,"Lipoamide acyltransferase component of branched-chain alpha-keto acid dehydrogenase complex, mitochondrial D197Q, P11182",-0.183 ± 0.044
23,"Lipoamide acyltransferase component of branched-chain alpha-keto acid dehydrogenase complex, mitochondrial D197S, P11182",-0.205 ± 0.041
24,"Lipoamide acyltransferase component of branched-chain alpha-keto acid dehydrogenase complex, mitochondrial D197T, P11182",-0.45 ± 0.06

# — the Human Domainome abundance scans (Beltran et al. 2025)
